From PMC2171732 (The Journal of Cell Biology, 2005)

Biological target: T1, Myo2p globular tail subdomain II (residues 1346–1574), tryptic fragment (S. cerevisiae, UniProt P19524 1346-1574)
T1 sequence (looked up): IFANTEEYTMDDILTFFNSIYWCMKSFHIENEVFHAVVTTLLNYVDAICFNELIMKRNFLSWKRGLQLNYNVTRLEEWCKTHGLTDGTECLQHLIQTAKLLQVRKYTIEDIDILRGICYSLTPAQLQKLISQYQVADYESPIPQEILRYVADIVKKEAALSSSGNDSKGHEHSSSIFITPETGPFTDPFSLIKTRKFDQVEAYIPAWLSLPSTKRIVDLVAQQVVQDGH
Test: SEC

B1: Myo2p globular tail subdomain I (residues 1131–1345), tryptic fragment (domain or fragment, S. cerevisiae, UniProt P19524 1131-1345, looked up)
chain: STPSSGNNHIDSLSVDRENGVNATQINEELYRLLEDTEILNQEITEGLLKGFEVPDAGVAIQLSKRDVVYPARILIIVLSEMWRFGLTKQSESFLAQVLTTIQKVVTQLKGNDLIPSGVFWLANVRELYSFVVFALNSILTEETFKNGMTDEEYKEYVSLVTELKDDFEALSYNIYNIWLKKLQKQLQKKAINAVVISESLPGFSAGETSGFLNK
With B1 the Kd was ≤ 1 nM.
